In patent US20180127505A1, “HUMANIZED ANTI-AXL ANTIBODIES AND THEIR CONJUGATES” (MEDIMMUNE LIMITED, priority 2015, published 2018) one finds Tm and pI data, which are given here for five molecules.

Sequences and labels used below:
B1: Ab2: anti-AXL antibody, VH SEQ ID NO. 2, VL SEQ ID NO. 5, constant region derived from human antibodies (antibody, V domains shown)
VH: MGFKMESQFQVFVFVFLWLSGVDGQVQLVESGGGVVQPGRSLRLSCAASGFTFSSYGMSVRQAPGKGLEWVATISSGGSYTYYPDSVKGRFTISRDNSKNTLYLQMNSLRAEDTAVYYCARHPIYYTYDDTMDYWGQGTTVTVSS
VL: MGFKMESQFQVFVFVFLWLSGVDGEIVLTQSPATLSLSPGERATLSCSASSSVSSGNFHWYQQKPGLAPRLLIYRTSNLASGIPDRFSGSGSGTDFTLTISRLEPEDFAVYYCQQWSGYPWTFGPGTKVDIK
modifications: human constant regions; Synthetic heavy chain variable region 1H12RHA; Synthetic light chain variable region 1H12RKA
notes: 5, constant region derived from human antibodies
B2: Ab3: anti-AXL antibody, VH SEQ ID NO. 2, VL SEQ ID NO. 7, constant region derived from human antibodies (antibody, V domains shown)
VH: B1 VH
VL: B1 VL with A33G, D85A, R102S, P125G, V129L, D130E
modifications: human constant regions; Synthetic heavy chain variable region 1H12RHA; Synthetic light chain variable region 1H12RKB
notes: 7, constant region derived from human antibodies
B3: Ab4: anti-AXL antibody, VH SEQ ID NO. 3, VL SEQ ID NO. 5, constant region derived from human antibodies (antibody, V domains shown)
VH: MGFKMESQFQVFVFVFLWLSGVDGEVQLVESGGGLVQPGGSLRLSCAASGFTFSSYGMSWVRQAPGKGLEWVATISSGGSYTYYPDSVKGRFTISRDNAKNSLYLQMNSLRAEDTAVYYCARHPIYYTYDDTMDYWGQGTLVTVSS
VL: B1 VL
modifications: human constant regions; Synthetic heavy chain variable region 1H12RHB; Synthetic light chain variable region 1H12RKA
notes: as for B1
B4: Ab5: anti-AXL antibody, VH SEQ ID NO. 3, VL SEQ ID NO. 7, constant region derived from human antibodies (antibody, V domains shown)
VH: B3 VH
VL: B1 VL with A33G, D85A, R102S, P125G, V129L, D130E
modifications: human constant regions; Synthetic heavy chain variable region 1H12RHB; Synthetic light chain variable region 1H12RKB
notes: as for B2
B5: Ab1 (antibody, V domains shown)
VH: EVQLVESGGDLVKPGGSLKLSCAASGFTFSSYGMSWVRQTPDKRLEWVATISSGGSYTYYPDSVKGRFTISRDNAKNTLYLQMSSLKSEDTAMYYCARHPIYYTYDDTMDYWGQGTSVTVSS
VL: ENVLTQSPAIMAASPGEKVTMTCSASSSVSSGNFHWYQQKPGTSPKLWIYRTSNLASGVPARFSGSGSGTSYSLTISSMEAEDAATYYCQQWSGYPWTFGGGTKLEIK

Numbering of substitutions follows the chain as printed.

The first series is described as follows: Protein thermal shift (Tm). As to conditions: 0.5 mg/mL in PBS, HEK293F expression product. The series is classed as physicochemical. On the procedure:
Protocol 6: Protein Thermal Shift Protocol
• 96 well optical plate semi-skirted (Starlab cat.L1402-9700). • Protein thermal shift dye kit (Life Technologies cat.446148). • Microamp optical adhesive film (Applied Biosystems) • 7500 Real-Time PCR System (Life Technologies) • Test items: Antibodies from Evitria and Spirogen • Protein thermal shift v1.2 software (Life Technologies)
Protein thermal shift dye (2.5 μL 1:1000 dilution) was added to sample proteins (17.5 μL of 0.5 mg/mL in PBS) in a 96 well optical plate and mixed thoroughly. Every sample was done in quadruplicate. The plate was sealed with a optical adhesive film and bubbles in the wells were removed by centrifugation 1 min at 500 g, then placed on ice. The sealed plate was introduced in the 7500 Real-Time PCR System and subsequently the experiment was set up as follows:
Data analysis and derivation of Tm data were done using the software following the manufacturers instructions.
The Tm is the temperature at which the thermal transition is half complete. Take B1: the Tm came out at 59.71 °C.
Still for that read-out and setting: the figure for B2 is 62.05 °C.
Consider B3, for which the Tm was 60.32 °C.
Turning to B4, the Tm was 63.06 °C.
As for B5, the Tm turned out to be 69.52 °C.

The next series in a line: Capillary isoelectric focussing (pI). As to conditions: HEK293F expression product. It is filed as physicochemical. The method, then: Protocol 5: Capillary Isoelectric Focussing
• PA 800 plus (AB SCIEX) • Anolyte Solution: 200 mM Phosphoric Acid (Sigma-Aldrich #345 245). • 4.3M Urea (Sigma-Aldrich #U0631) in water. • Catholyte Solution: 300 mM Sodium Hydroxide. • 3M Urea (Sigma-Aldrich #U0631) in cIEF Gel (Beckman Coulter #477497). • Chemical Mobiliser: 350 mM Acetic Acid (Sigma-Aldrich #537 020). • Pharmalyte 3-10 (GE Healthcare 17-0456-01). • Cathodic Stabiliser: 500 mM Arginine (Sigma-Aldrich #A5006). • cIEF Peptide markers PI 4-10 (Beckman Coulter # A58481). • Anodic Stabiliser: 200 mM Iminodiacetic Acid (Sigma-Aldrich #220 000). • Neutral Capillary, 50 μm i.d.×45 cm, (Beckman Coulter #477 441)
• Turn on the PA800+ machine and UV lamp, allowing it to warm up 30 mins before use. • Clean the system electrodes and interface block with a damp Kimwipe. • Prepare buffer trays as shown, with 1.5 mL reagent per vial, 1 mL of water in the waste and place in the system. • 1. DDI water • 2. Anolyte • 3. Urea Solution • 4. 3M urea/cIEF Gel • 5. Chemical Mobilizer • 6. Waste • 7. Catholyte • 8. Chemical Mobilizer • 9. BI (Inlet Buffer Tray) • 10. BO (Outlet Buffer Tray) • NOTE. Each set of buffer vials is good for 6 consecutive runs or for 24 hours inside the instrument. • Insert the capillary cartridge into the system and close the front panel. • NOTE. […] When the capillary is not in use, submerge the capillary ends in vials filled with DDI water. • Prepare cIEF master mix using the table below. Dispense each reagent into a centrifuge tube, vortex 1 min, invert every 15-20 sec to ensure complete mixing and store at 2° C. to 8° C. for up to 1 day.
• Desalt and concentrate each antibody (to about 5 mg/ml) in 2M urea using Amicon Ultra 0.5 mL centrifugal filters (Sigma Z677108). • Mix 200 μL of master mix with 10 μL of protein, vortex the cIEF sample for 1 min, inverting the tube every 15-20 sec, then centrifuge at high speed to remove any air bubbles. Transfer 100 μL of sample into a micro vial. Place the micro vial into a universal plastic vial and cap it with a blue cap. Then place the sample vial in the inlet sample tray. • Run the “cIEF Conditioning—PA 800 plus.met” method to condition the column. • Rinse for 5 min at 50 psi with Chemical Mobilizer. See FIG. 2.10. • 2 Rinse for 2 min at 50 psi with DDI water. • 3 Rinse for 5 min at 50 psi with cIEF gel. • 4 Submerge both of the capillary ends in vials filled with DDI water. • Use the “cIEF Separation—PA 800 plus.met” method to create a sequence containing all protein samples and a blank. • Rinse for 3 min at 50 psi with Urea Solution. See FIG. 2.11. • Rinse for 2 min at 50 psi with DDI water. • Inject sample for 99.0 sec at 25 psi. • Water dip by submerging both capillary ends in DDI water. • Focusing step, 15 min at 25 kV under normal polarity (Time=0). • Chemical mobilization, 30 min at 30 kV under normal polarity (Time=15 min). • Stop data collection (Time=45 min). • Rinse for 2 min at 50 psi with DDI water (Time=45.10 min). • Submerged both of the capillary ends in DDI water (Time=47.20 min). • End the method (Time=47.30 min). • Put the “cIEF Shutdown—PA 800 plus.met” method at the end of the sequence to rinse the capillary and turn off the UV. • Rinse for 2 min at 50 psi with DDI water. See FIG. 2.12. • Rinse for 5 min at 50 psi with cIEF gel. • Turn off the UV lamp. • Submerge both of the capillary ends in vials filled with DDI water. • For short term storage (1 to 3 days), leave the capillary on the instrument. […]
Regarding B1, the pI was 8.06.
The molecule B2 came in with a pI of 8.15.
B3 returned a pI of 7.56.
Still for that read-out and setting: under B4 stands 7.54; under B5, 8.05.
